{
  "source": "patent US8889709B2",
  "about": "“Use of isoQC inhibitors in the treatment and prevention of inflammatory diseases or conditions” (Probiodrug AG, priority 2006, dated 2014)",
  "proteins": {"B1": {"name": "mouse-isoQC (Mus musculus; I74N) (protein)", "chain": "EEMSRSRDLRVPLNGSLSEAKLRLVVGQLDPQRLWGTFLRPLLIVRPPGSSGNLQVRKFLEATLQSLSAGWHVELDPFTASTPLGPLDFGNVVATLDPGAARHLTLACHYDSKFFPPGLPPFVGATDSAVPCALLLELVQALDAMLSRIKQQAAPVTLQLLFLDGEEALKEWGPKDSLYGSRHLAQIMESIPHSPGPTRIQAIELFVLLDLLGASSPIFFSHFPRTARWFQRLRSIEKRLHRLNLLQSHPQEVMYFQPGEPPGPVEDDHIPFLRRGVPVLHLIATPFPAVWHTPADTEANLHPPTVHNLSRILAVFLAEYLGL", "notes": "starting with codon 43 (Glu 43) of the open reading frame (counting from methionine II); yeast alpha-factor secretion signal (N); made in house; host or cells: Pichia pastoris X-33"}},
  "assay_in_all_cases": "Kinetic parameters of conversion of peptide substrates by murine isoQC",
  "assay_type_in_all_cases": "biochemical, mouse",
  "conditions_in_all_cases": "pH 8.0; 30.0 °C",
  "key": {"[1]": {"substrate": "C[C@H](NC(=O)[C@H](Cc1ccc(O)cc1)NC(=O)[C@@H](N)CCC(N)=O)C(=O)O"}, "[2]": {"substrate": "NC(=O)CC[C@H](N)C(=O)NCC(=O)N1CCC[C@H]1C(=O)O"}, "[3]": {"substrate": "NC(=O)CC[C@H](N)C(=O)N[C@@H](CCC(=O)O)C(=O)O"}},
  "data": [
    {"protein": "B1", "values": [
      {"measurement": "Km", "setting": "[1]", "result": "58 ± 4", "unit": "µM"},
      {"measurement": "kcat", "setting": "[1]", "result": "22.9 ± 0.86", "unit": "s⁻¹"},
      {"measurement": "kcat/Km", "setting": "[1]", "result": "394230 ± 21360", "unit": "M⁻¹ s⁻¹"},
      {"measurement": "Km", "setting": "[2]", "result": "102 ± 6", "unit": "µM"},
      {"measurement": "kcat", "setting": "[2]", "result": "11.4 ± 0.4", "unit": "s⁻¹"},
      {"measurement": "kcat/Km", "setting": "[2]", "result": "111440 ± 6810", "unit": "M⁻¹ s⁻¹"},
      {"measurement": "Km", "setting": "[3]", "result": "470 ± 40", "unit": "µM"},
      {"measurement": "kcat", "setting": "[3]", "result": "7.79 ± 0.44", "unit": "s⁻¹"},
      {"measurement": "kcat/Km", "setting": "[3]", "result": "16880 ± 2320", "unit": "M⁻¹ s⁻¹"}
    ]}
  ]
}
